B1: humanized 7B3 (h7B3), Fc version not stated (antibody, V domains shown)
VH: EVQLVESGGGLVQPGGSLRLSCAASGFTFSTYGFHWVRQAPGKGLEWVAYISSNSGTIDYADTVKGRFTISRDNAKNSLYLQMNSLRAEDTAVYYCARQGYGFDNWGQGTTVTVSS
VL: DIQLTQSPSSLSASVGDRVTITCSASSRVSYMNWYQQKPGKSPKIWVYGISNLASGVPSRFSGSGSGTDFTFTISSLQPEDIATYYCQQRSSHPLTFGGGTKVEIK
B2: humanized 8E11 (h8E11), Fc version not stated (antibody, V domains shown)
VH: EVQLVESGGGLVQPGGSLRLSCAASGFTFRTYGMHWVRQAPGKGLEWVAYISSGSGTIDYADTVKGRFTISRDNAKNSLYLQMNSLRAEDTAVYYCTRQTGAMDYWGQGTLVTVSS
VL: EIVLTQSPATLSLSPGERATLSCSASSSVSYMNWYQQKPGQSPRLWIYGISNLASGVPARFSGSGSGTDFTLTISSLEPEDFAVYYCQQRSSHPLTFGGGTKVEIK
B3: humanized 6E1 (h6E1), Fc version not stated (antibody, V domains shown)
VH: EVQLVQSGAEVKKPGASVKVSCKASGYTFTNYWMHWMRQAPGQGLEWLGRIHPSDSDTNYNQKFKGRATLTVDKSISTAYMELSRLRSDDTAVYYCAIEGTGKGYFDVWGRGTLVTVSS
VL: DIQMTQSPSSLSASVGDRVTITCKASQDIYSYLSWFQQKPGKSPKTLIYRANRLVDGVPSRFSGSGSGQDFTLTISSLQPEDFATYYCLHYDEFPLTFGGGTKVEIK

Molecular target: mutagenized ULBP6 phage library (pool of ULBP6 mutants displayed on M13 phage)
Experiment: plate panning; antibody coated at 5 ug/mL, eluted phage titered against PBS-coated background wells

Binder | Phage enrichment [fold]
B1 | 75
B2 | 145
B3 | 220

Reference: patent US20250084172A1
